Test results published in the DeepSol protein solubility set.

Test: soluble on expression in E. coli; label from the status in PepcDB or PDB records

Row | Sequence | soluble on expression in E. coli
1 | PAAQSCAARVGAPLVNDTVSISLSDHLTDMPTIESRLHAAAKEGFTITIYNPWSRKRRDNYEKCCEILLEHRDPETPVGVVHAAGREDEQVEIVELGELPELGETDLVDMTTTLLVGNEDTY | not soluble
2 | AGGGYWHTSGREILDANNVPVRIAGINWFGFETCNYVVHGLWSRDYRSMLDQIKSLGYNTIRLPYSDDILKPGTMPNSINFYQMNQDLQGLTSLQVMDKIVAYAGQIGLRIILDRHRPDCSGQSALWYTSSVSEATWISDLQALAQRYKGNPTVVGFDLHNEPHDPACWGCGDPSIDWRLAAERAGNAVLSVNPNLLIFVEGVQSYNGDSYWWGGNLQGAGQYPVVLNVPNRLVYSAHDYATSVGPQTWFSDPTFPNNMPGIWNKNWGYLFNQNIAPVWLGEFGTTLQSTTDQTWLKTLVQYLRPTAQYGADSFQWTFWSWNPDSGDTGGILKDDWQTVDTDKDGYLAPIKSSIFDPV | soluble
3 | MGSDKIHHHHHHMTYSKQSEWREIQSYLPKKYHFTDNYHPTEEWWNWKGHEVHLDCFRNEKAPVKVILLHGVGTNGRQMSMILGGPLSKDGFETIAIDMPTYGVTKVKKGSVVKYDDWVDLACDYIDYEQQRDDRPIVLYGLSAGGMETYHVAAKNKKVKGIIGMTFLDQKNQQVRDETAKNLVMSRVGIPMAGIACNIGLENFKMKMSTASKMSALCNNEKVMEIFNRDKTSAANKASMRFLDSYGNYQPAMEPEDFDVCPILLTQPEQDKWTPLHLSTPFLNKIKKVDVKIVMLENGGHYPVEQPALDQMHDAIVEFIYKVTK | not soluble
4 | MSENKNVQDTHISEQMKALHGALIRVVSALNRPRNDEKLIAEAGIQLDRALFSILISIERLGPIGVVELAERAGRDYTTVSRQVAKLEKLGLIIRQHNAIDRRIREAVISRTGKAMTERIDAAREQMGNVVFKDWPQDELDVFVRLMQKFADAMDSDASMPE | not soluble
5 | MRLAFWLYEGTALHGVSRVTNSMKGVHTVYHAPQGDDYITATYTMLERTPEFPKLSISVVRGQDLARGTSRLPGTVEQVDKHYKPELIVVAPSCSTALLQEDLGQMARASGVDQSKIMVYAVNPFRVAENEAAEGLFTELVRRFAAEQPKTEKPSVNLLGFTSLGFHLRSNLTSLRRMLKTLGIEVNVVAPWGAGIDDLKKLPAAWVNIAPFREIGCQAAGYLKEKFGMPSITEAPLGVNATLRWLRAIIAEVNKIGAEKGMAPMAMPELRDFSLDGQSAPSSVPWFARTADMESFSNKRAFVFGDATQVVGVTKFLKDELGMKIIGAGTYLPKQADWVREQLEGYLPGELMVTDKFQEVSAFIEEEMPELVCGTQMERHSCRKLDVPCMVISAPTHIENHLLGYYPFFGFDGADVMADRVYTSAKLGLEKHLIDFFGDAGLEYEAEEPEAFTEPTMSGNGTVASVSSAEAPSEAAVVTATATGELSWTAEAEKMLGKVPFFVRKKVRKNTDNYAREIGEPVVTADVFRKAKEHLGGLEHHHHHH | not soluble
6 | MGSDKIHHHHHHVDLGHDVTLFASGDSITSAKLDACWPRALRLDPTIRDALAPHMLMMEKVRKVAHEFDVLHFHLDYMPFPLFTTMDTPFVTTLHGRLDLPELQPVFDACSNVPVVSISDSQRQPLPQANWLNTIYHGLPEQLLTPQAHKKPEYLAFLGRICPEKRVDTAIRIAAQSGLPLKIAAKVDKVDQEYFKREIEPLLSMAHVEFVGEINEAQKPEFLSSAKALLFPIDWSESFGLVMIESMACGTPVIAFNRGSVPEVIDHGVTGYIVEDVQGAVAALQRLDELSRTEMRGRRLNLPLEKMRDWRIGSRVCRHHAG | not soluble
7 | MSAVPFPLLRLPNSALQKSLKEMRLVEQLSLSLLSENTMQLVRRFNRGRYFATITVVDSICVHLWTARCGQLFFKIKPDQSIRAVNILKSDSIATKFTMPKIPGFTVKKWLEHISHVFFSDTGATLRWMSSVRNIEETCEILKEVKIARLAINPSTVQDCQMRRLLPAIKELIVSDSTVHGSIVHWNLEKLSVFSTTMTLDDLLLSNCSDIAIGRNSLSHKNRNIFMRQWINGSNPRLQYFAMLMGFNGVQQLENTLFENIKYTETTVQGASTYKEFEIEGRDGRTAKIKLNTELTSRYFAMNVIF | not soluble
8 | TGALMASSPQDIKFQDLVVFILEKKMGTTRRALLMELARRKGFRVENELSDSVTHIVAENNSGSDVLEWLQAQKVQVSSQPELLDVSWLIECIGAGKPVEMTGKHQL | soluble
9 | MKFSVLMSLYIKENPQFLRECFESLVAQTRQADEIVLVFDGVVTPDLEFVVTEFETKLPLKLVKLPQNRGLGKALNEGLLHCDYDWVFRMDTDDICVPDRFEKQVAFIEQHPESIIFGGQIAEFGKNVNDIVAYRNVPTSAQEIIKFTQKRCPFNHMTVAYQKSAVINCGGYEDLQEDYYLWIKLVAQGLYMANLPDILVYARVGNGMVLEHHHHHH | not soluble
10 | MGSDKIHHHHHHMNRLKKLAWGELFMLGKQGKVRYVFTSSNTAGGYCSFMPELLAGLQKIFILKGPAGTGKSSFLRLLGQSMAEQGYEVEVWLSALNPLNPEGIYLPQMEAAVVNGSLPITIDPGYPAGRAEIINLEDYRDRKAAAEKGRDILELVQRVEKHHSKAYNILKSVIQTREELRQLSARHLDNSKFNQIFQELEARLAEEEVRERHYFANAVTADGIISYIEELSTPCRKRYIFKGPEGCGKSTMIAELARKAAEKGQFLEYYHSGLEPERLLMVIISSSQTALIDIGEMEINLKPCDLLVDLGKCLSDYDCSLLGMKNSQVYRNHEAMLLQVQDELENACLAVKKIKKINASFMDYDSIDKKRMEIEQELGSELSKCFCNGIESGL | not soluble
11 | MIMLIKKLLETTAAAEEKARQLAEMETDEAWAVYLAEAERQRKLWQYVHYLVAGANADGRAEREQSKAGAPRCDLLQAMAAAEWEKAMLCQNVCQSLNGAAKQAVDAVFRQALRYSGQFLAMAYDERARQTAD | not soluble
12 | MYKFVLIASLLVALCMAAPPRQESEAERIEREEYEKYQNENAQYSFNSSVDDKINDGQISRNEEREGGTVRGSYSYFDGFVKRRVEYIADKDGYRVLKDEIEDVGNGPSFNPDGIANVEGSMIGKYSIKLDKADDDKHYKDIHALEHHHHHH | not soluble
13 | GSATASDSTRRVSVRDKLLVKEVAELEANLPCTCKVHFPDPNKLHCFQLTVTPDEGYYQGGKFQFETEVPDAYNMVPPKVKCLTKIWHPNITETGEICLSLLREHSIDGTGWAPTRTLKDVVWGLNSLFTDLLNFDDPLNIEAAEHHLRDKEDFRNKVDDYIKRYAR | soluble
14 | MKPKVVRYLDEGEFPLAEEEALRLYRAMRRARFFDEKALTLQRQGRLGVYAPFMGQEAAQVGVALALEERDWVVPSYRESAMLLAKGLPIHTLILYWRAHPAGWRFPEGVRAVNPYIPIATQIPQAVGLALAGRYRGEDWVVATSIGDGGTSEGDFHEGLNFAAVFGAPVVFLVQNNGYAISVPKSRQMKVDYVARRAEGYGMPGVVVDGNDAFAVYLEAKKAVERARKGEGPTLLEALTYRLAPHTTSDDPSRYRSKEEEEAWRAKDPILRLRKALEGRGLWGEEAEKALLLELEEEFQRELALADEAPEPRPEEIVEHVYAEMGPDQRRAWEALRRGLHVEEVE | soluble
15 | MGSDKIHHHHHHMRALVLAAGKGTRMKSKIPKVLHPLSGRPMIEWVIETAGKVAQKVGVVLGFEAELVRKALPEWVDVFVQGEQLGTAHAVMCAKDFIEPGDDVLILYGDVPLISENTLKRMIEEHRKGADVTILVADLEDPSGYGRVIQDGDKYRIIEDTDLPEELKSVTTINTGFYVFSGDFLLRALPEIKNENAKGEYYLTDAVNFAEKVRVVRTDDLLEITGVNTRKTLVWLEEQLRMRKIEELLENGVTILDPATTYIHYSVEIGMDTVIYPMTFIEGKSRVGENCEIGPMTRIVDCEIGNNVKITRSECFKSVIEDDVSVGPFARLREGTILKKSSKIGNFVEIKKSTIGEGTKAQHLSYIGDAFVGKNVNVGAGTITCNYDGKKKNPTFIEDGAFIGSNSSLVAPVRIGKGALIGAGSVITEDVPPYSLGLGRARQVVKEGWVLKKRKEE | not soluble
16 | MAMKRREMLSLCGKSVIALGCGGLPAILRAQGRFPSKALTYVVAYTPGSANDILVRILAPELGTQLGQSIIVDNKPGAGGSIGMAAVAQSKADGYTLGLGSTATMAINRALYKNLPYDPLRDFESVVKFASTANVLVVPAGGPAKTLADLKPRDGKPLMFSSPGNGTTQHLAGVLFSSTTKLPTEHVPYRGPAESVMAVASGEVDFSLASLPSALAQIRAGRLRVLGCTSLKPPSSLPQAVSLAEQGLPGFERTEVWFGLVVPSGTPDQARLALEQASVQVLGKQDVREKLEQAGYQPANPQSEGKFDPFVREQVAFWADLVKQAGASIDLEHHHHHH | soluble
17 | MNPIIDGIIALEGGYVFNPKDKGGATHWGITEATARAHGYAGDMRDLTHAEAYAILEEDYWIKPGFDVISTLSWPVSFELCDAAVNIGAYHPSAWLQRWLNVFNHEGKRYPDIHVDGNIGPRTLAALEHYLAWRGQEGEAVLVKALNCSQGTYYLNVAEKNHNNEQFIYGWIKNRVT | soluble
18 | MAQSKILLYYKFTPIADPKAMMLWQRDMCELLGLKGRILISEHGINGTVGGDMDACKRYVRKMREYPGFRGTEFKWSDGGAEDFPKLSVKVRDEIVAFGAPGELKVDEKGVIGGGVHLKPEEVNKLVEERGDDVVFFDGRNAMEAQIGKFKNAVVPDVRTTHDFIRELESGKYDWMKDKPVVSYCTGGIRCEILSSLMKNRGFKEIYQIDGGIVRYGEKYGNDGLWEGSLYVFDRRMHMEFGNGVQDPGFIQLGHCVQCGAPTNKFEHCINEDECRELVLMCPDCYENPATRNCGREHCKEVAAEAAAAAAV | not soluble
19 | MSAPRLPVTVLTGFLGAGKTTLLSKLLENNKQRRLAILVNEFGEVSIDGGLLRDGENQGVEIHDLANGLVAYDDDADFLPTMLALWQRRQQIDHVLIETSGLALPSAVMAQLQSEALAPYFVLDATLAVVDTPLLLAGHFAPAGDGGKTDAVAALFDQQLGHADIVVLNKIDALSADQLLAAEEAVRKQAPSIRFIELAYEAKLDTRLTLGLHLHEASPAAHRHYGPVASMPGLAMRPLANQTLLDGHSHGGQAAHSHGLATHKHFHEQDPGWQSFMIRSKEPQCADKLAAALQAIAREEPLLRIKGFAACADSPGRLLAQGVRSRIELSRDDTLAAPRQAQLVFIGYHPSRPRVVALLRDITGAHWSLEHHHHHH | not soluble
20 | MGSDKIHHHHHHMVRQFLPLNGLRAFEASARHLSFTRAAIELCVTQAAVSQQVKGLEKRLGVALFQRLPRGLKITAEGEALLPTVTSSFDQMATTLDRIEAGQVRELLFLGVVGTFAVGWLLPRLAAFQKRHPFIDVRVSTNNNRVDMAAEGLDFAIRFGQGSWHGTDAFRLFEAPLSPLCTPKLAEMLKEPADLMDATLLRSYRADEWSTWFAAAGVSPAAQVNAGIVFDTSLGMMEAALQGLGVALAPPSMFSRHLTSGAVMQPFPVTISLGSYWLTRLQSKPQTSAMQAFSDWLLETIGTA | not soluble
21 | MQLALVLSELGEYQVSNQWLLKIIHDLDETMYDCLYFLANNYACLGLFREATQYAEQYLTCESDGEFADDAADLLELLKLDRHDVSEEQEQLITMQERARHLLEQERFAEAIEALEAIVSRYPEFWSAHNNLALAYFYNGDVERAKQKLLEVLKRDPGNLHALCNALVFAYYLHDQEEVAALCETLASVYPFFREHQYKLGATFALVGRFDSAFRWLYRLYKNGFDGDGPFYYWLAYSAYHIGHESLARQVWETLTTLHPEKRGELEHHHHHH | not soluble
22 | MGSDKIHHHHHHMKQFWNWKNYQIAWQVEETSNDSGIAIVLIHGFGACKEHWRFNQKTISSIAPCYALDLIGFGDSSKPNSQIPYEKKTYQNFNYCFDNWSQLVYDFCNEIVKKPVLLIGNSIGGVIALNTSKKLSQKALGVILIDCAQRTMDDKRLAEQSLLMRFLRPVIKTFVRQRLLSSNIFNIAAQPKFIAKILKVAYPSRNNVDEELIDTLFKPTQSKGAPEAFRGFINLFDDYLAPNLLKEMNTSVHLIWGEKDPWEPVKEAQKWFKTFECIKSLDVISDAGHCPHDEMPEKVNPILIKIIQEAI | not soluble
